{
  "source": "the DeepSol protein solubility set",
  "data": [
    {"experiment": "soluble on expression in E. coli; label from the status in PepcDB or PDB records", "values": [
      {"sequence": "MSLKVVKFGGSSLASASQLEKVLNIVKSDSERRFVVVSAPGKRNAEDTKVTDALIKYYRDYVAGNDISKNQSWIIDRYAAMVSELGLKPAVLEKISKSIHALATLPIEENEFLYDTFLAAGENNNAKLIAAYFNQNGIDARYMHPREAGIVVTSEPGHARIIPSSYDKIEELTNTNEVLVIPGFFGVTKENQICTFSRGGSDITGSIIAAGVKADLYENFTDVDGIFAAHPGIIHQPHSIPELTYREMRELAYAGFSVLHDEALLPAYRGKIPLVIKNTNNPDHPGTRIVLKHSNDEFPVVGIAGDSGFVSINMSKYLMNREVGFGRKVLQILEELNIGWEHMPTGIDDLSIILRSRQLTPIKEEEILRQLVQKAKVDHAEIEHDLSIIMIVGEKMKSHIGVTATATRALSENKINIQMMSQGSSEVSIMFVVNKDQEKAAIKALYNAFFGESKEDEGHHHHHH", "soluble on expression in E. coli": "soluble"},
      {"sequence": "MPKKPLIDQLHHEDSWRLFRILAEFVEGFETLSELQVPLVSVFGSARFGEGHPAYEAGYRLGRALAEAGFGVVTGGGPGVMEAVNRGAYEAGGVSVGLNIELPHEQKPNPYQTHALSLRYFFVRKVLFVRYAVGFVFLPGGFGTLDELSEVLVLLQTEKVHRFPVFLLDRGYWEGLVRWLAFLRDQKAVGPEDLQLFRLTDEPEEVVQALKAEAPPR", "soluble on expression in E. coli": "soluble"},
      {"sequence": "MPSYTVTVATGSQWFAGTDDYIYLSLVGSAGCSEKHLLDKPFYNDFERGAVDSYDVTVDEELGEIQLVRIEKRKYWLNDDWYLKYITLKTPHGDYIEFPCYRWITGDVEVVLRDGRAKLARDDQIHILKQHRLKELETRQKQYRWMEWNPGFPLSIDAKCHKDLPRDIQFDSEKGVDFVLNYSKAMENLFINRFMHMFQSSWNDFADFEKIFVKISNTISERVMNHWQEDLMFGYQFLNGCNPVLIRRCTELPEKLPVTTEMVECSLERQLSLEQEVQQGNIFIVDFELLDGIDANKTDPCTLQFLAAPICLLYKNLANKIVPIAIQLNQIPGDENPIFLPSDAKYDWLLAKIWVRSSDFHVHQTITHLLRTHLVSEVFGIAMYRQLPAVHPIFKLLVAHVRFTIAINTKAREQLICECGLFDKANATGGGGHVQMVQRAMKDLTYASLCFPEAIKARGMESKEDIPYYFYRDDGLLVWEAIRTFTAEVVDIYYEGDQVVEEDPELQDFVNDVYVYGMRGRKSSGFPKSVKSREQLSEYLTVVIFTASAQHAAVNFGQYDWCSWIPNAPPTMRAPPPTAKGVVTIEQIVDTLPDRGRSCWHLGAVWALSQFQENELFLGMYPEEHFIEKPVKEAMARFRKNLEAIVSVIAERNKKKQLPYYYLSPDRIPNSVAI", "soluble on expression in E. coli": "soluble"},
      {"sequence": "MGSDKIHHHHHHMNADIKISFIDNIDKISASDWQNLNNSPCPFLRYNFFNALEKSESASAKQGWQAHHLVATNNNDVTAVMPMYLKSHSWGEYVFDWDWADAFKRNDIDYYPKLVATIPFTPVSSDKLLTSQGHVNELFEPLIEHCQQENINSWHILYCNEIRTALPEDVYQRNTVQFHWFNRDYETFDDFLNTFTSRKRKNTRKERLSIIEQEIDIRQLKNNEISQQDLEFFYLTYQLTYLKRGHQPHLSYEFFKQIVADMADNILLIIASHEQEDIACALFFYDDSQLYGRYWGCTKHYNNLHFELCYYRGIEFCIQNKLQSFNPGTQGEHKIQRGFEPVLTYSYHWVKHVPFRMAIKNFCQQEQQHMLTYQEQCQQVLPFRKI", "soluble on expression in E. coli": "not soluble"},
      {"sequence": "MSLNQQYNAFSVLVVDDELGMQAILKKALGKLFSHVDTAGSIEEAEQLRNSRHYDLILLDINLPGRSGIEWEEAFEDDEKRADVIFMTGYADLEIAIRALQLGASDFILKPFNLEQMLKAVSRCMDRRLNERMQYAMKRDYQRHNTSEIIGGSEKTRQLKQLITQFAPSRASVLVEGESGTGKELVARGIHQASGRTGPFVPINCGAIAPELLESELFGHTSGAFTGAKKSREGLFRVANGGTLFLDEIGEMPLSMQASLLRVLEQRTIRPVGSEREISIDVRIVAATNRNLQEEVNQGNFRSDLYYRLNVLKIEVCPLRERKTDLFELVPFFSNMLTRELGMPAPKWAHEDMEAMSEYDWPGNIRELKNLIERCILLGKPPAHYWRELNGGHSLPNVSEGHHHHHH", "soluble on expression in E. coli": "soluble"},
      {"sequence": "MAHHHHHHMDEGLPIDASEAQLEAIRREVAQYPLLSLSLPLNKESMIVKEMEHDDAYLAQTLSLFGASPVSTKQYDFGSIRYSRRDGNCFYRCAGFRLCELIVEHPERAAEYVALLKSREESLSRLFGLFVFDFTDALAEILKGVADKTITSVAQVYNRFISDDAAYVLAALRYLISAYLQEHEEEYEPFVSGLGYGAVRDYCNAEVELVDHESDNVQLAAFAKAFNVCIKVYALDRNAGNNITEYSFNGEDNDAGDRLVVGLLYMPGHYNLLGRGPG", "soluble on expression in E. coli": "not soluble"},
      {"sequence": "MSLTLFHAPRSRSTRIVTLLRELDAIDKVAIKIVDITRGDGSGRKDPKNLHPEGKVPLLDHDGVVIWESIAIIQYLTDLFPEKKMAPVAGDPQRGRYLSWLAWYAGVVEPVLIMQAAGISHPFVDFTFRSPAELAARLETALKDCPYLMGERYTAVDLLLHSPFAWCPAATPESDVVKAWIERCGERPSLQWTANYDACTVVAEGHHHHHH", "soluble on expression in E. coli": "soluble"},
      {"sequence": "MARPIGIYEKATPKQFTWRERLQFAKDLGFDFVEMSVDESDARLARLEWTKEERLDLVKAIYETGIRIPTICFSGHRRYPLGSNDPAIEAKSLKLMKQCIELAQDLGVRTIQLAGYDVYYEKKSPETRARFIKNLRQSCDWAEEAQVMLSIEIMDDPFINSIEKYLAVEKEIDSPYLFVYPDAGNVSAWHNDLWSEFYNGHKSIAALHLKDTYAVTETSKGQFRDVPFGQGCVDWQELFAVLKKTNYNGPFLIEMWSENCDTVEETKAAIKEAQDFLYPLIEKAGLT", "soluble on expression in E. coli": "not soluble"},
      {"sequence": "MGSDKIHHHHHHMEKLEKTVDMNIQQMINLSVLELVKLGLKYGIFKAVSKKISYIDLLNQVDVPNKPLLKKLIDHLKLLGIIEETPTHLLLNSFSYEIRFPKEEHMYLLPDWIPSFEEIYRMVDFALITPNHPHVLMDFDKDADFWDLRLSSTFHEAYRILIAKLGEIGEGSRVLDIGCGSASPAYFGKLVGEEGEYVGVDYSPALLEIAKNRTEGLPVKLKEMDASLIKPKNKYDVAIMSFVLEYIENRRSALRNALDSLESGGKLIIVDAFKDEFRNVEALEFFEGLNSAFREYPSKKYIKEVILDEGFEVKFGDYGKAILLIEKL", "soluble on expression in E. coli": "not soluble"},
      {"sequence": "MEVMRGVRVIEGMNGGRFPYCNVVVVGDVVIDAGAGLEVMRKVNASLLVLSHLHPDHSSGAWLFKDVLAPAEGRITLDTLARRFVAPDLVESWKRFISAATGLREFECERYEEGVVVKEPEIVAVPVKGHTMDHHVFLIEQKVLFGADVDLTSFGPFYGNPEADPYLFEREMDKLLDIDFEIFVSAHSKPVFGKELEHHHHHH", "soluble on expression in E. coli": "not soluble"},
      {"sequence": "MSLKIFDAHCDVLLQLWSAQGRKDFKHDSQLHITFEQLKRRKGSIQCFAIYVPETVAYENRFEVALQMVDIFYNEILSLPGVKFIQTKDDINMLKQDEIGAILTLEGCEAIGKDAMKIRLLYRLGVRSFGLTWNYANLLADGALETRGAGLTTSGKHVVQELNALHVWTDVSHLNERSFWDVIEIAKNPIASHSNCMKLCQHPRNLNDEQLKALIKRNGMIGVTFVPQFLTNEKQANVADIIRHIEYICSLGGENNIGFGSDFDGILETVVNVSAYRDYENVVNELCKHYAASTVERFLYDNFVEHISEGHHHHHH", "soluble on expression in E. coli": "not soluble"},
      {"sequence": "MAHHHHHHMSSHALSSGSAPNVSSATTGTVAQQADSLTRNLLLGIPKEGLSPDSPEAADLQAAEAFVSDIQQEILAYDIANAKAIELYAVRWWSAVPFFGRHAKRALAAESTAAAAAAAGETHESTEAAAAAVAVDGSANSSEGHGLRLSPEEAAAALQSGGAYLHRQTSQTPRGFKVERTSALDPGQLSQLAGGASGASESKAVPVPKVNTWLFRRQHPSWVPLMQRWWVPWLCCGSIVLIWTPDVWKLRTLYFCDHQYALLRQSIHKAYWWATMRPEDYAEHIAAIAAERPSRVRGTSCPFE", "soluble on expression in E. coli": "not soluble"},
      {"sequence": "MGAAKNIWALANAEDAANDAEQIPYSSFVVDTSLPLPLMIPRIIELCKDLFKNWGELDDSLFSVERVSGGITNLLLKVSVKEDTNKEVSVTVRLYGPNTEYVINREREILAIKYLSAAGFGAKLLGGFGNGMVQSFINARTLEPSDMREPKIAAQIARELGKFHKVDIPGSKEPQLWVDILKFYEKASTLTFEEPDKQKLFETISFEELHKEIIELREFTGLLNAPVVFAHNDLLSGNFMLNDEEEKLYLIDFEYGSYNYRGFDIGNHFNEYAGYDCDYSLYPSKEEQYHFIKHYLQPDKPDEVSIAEVESVFVETDAYKLASHLYWAIWAIIQARMSPIEFEYLGYFFLRYNEYKKQKPLTFSLVTSHLSASL", "soluble on expression in E. coli": "soluble"},
      {"sequence": "MEQDINNQTGKKIFLNEECFLELDKLPQHVSVLGVSGFGKSNILLHFLKYAIDNDHPLIFVNGKGDKELITQFEHYQTSAKQLSPEDGFDTVKLVALKNTSAKIWSLDDRIATIKYNPFK", "soluble on expression in E. coli": "soluble"},
      {"sequence": "MGSDKIHHHHHHMCSEGLRERYVNPYTDFAFKLLFGTDLNKEILIGFLNALFDGKQVIEDVIYLNTEHLGSKETDRRAVFDVYCENEKGEKILIEMQRGEQQFFKDRSIYYATYPIREQAIKGEIWNYELKAVYVIGILNFALDDVSSSGFRHEVKLMDTTTHEVFFDKLTFVYLEMPKFHKTEQELDTLFDKWMFVLKNLARLMERPTSLQERVFNRLFEAAEIAQFSKENLYAYEESLKVYRDWNNVINTAIQKGIAEGEWMKAKAIAGNLKNAGLSIAEIAKVTGLSEDEINSL", "soluble on expression in E. coli": "not soluble"},
      {"sequence": "EVQLQQSGPELVKPGSSVKISCKASRNTFTDYNLDWVKQSHGKTLEWIGNVYPNNGVTGYNQKFRGKATLTVDKSSSTAYMELHSLTSEDSAVYYCALYYYDVSYWGQGTLVTVSSAKTTPPSVYPLAPGSAAQTNSVTLGCLVKGYFPEPVTVTWNSGSLSSGVHTFPAVLQSDLYTLSSSVTVPSSTWPSQSVTCNVAHPASSTAVDKKIAPA", "soluble on expression in E. coli": "soluble"},
      {"sequence": "MGSDKIHHHHHHMDNKEKEDEELSDELKDQPGPSEKPRTPTVVAFTKPSFYRVNTVISDVKVCRSMSYDMCGNHQQELLFDLYKDETTGKVYLPRFFKALLESGIRKDDPRIDKMIQNIKDADLLDDFVWGTQHIYLEKDTFKRYIGSSIGVVTKALKKQMIIPDWERFVSDMGEIFEDVRSHNEGDLATYIPQLSRVAPDSWAMSVCTIDGQRKMWGDALKPFCLQSVSKPFTYALVHDDIGPEELHAHVGQEPSGRLFNDISLDHNKKPHNPLINAGAIVVASLLKNKLPLADRFDFMIHACRKFVGSGYIGFDNSVFLSERETADRNYALSYYMREHKVFPKDLNLQDTLDLYFQICSIETNCDSLAVMAATLANGGVNPMNGERIVNNRACRDTLSLMYSCGMYDWSGQFAFHVGLPAKSGVSGDMIIVIPNVMGIALYSPRLDKLGNTVRGVKFAEQLVQKYNFHNYDSLIYSDNKKIDPRRQLKDDHDGQNRFMYATKLGDIAAIKRFLLMGHDIHCKDYDDRTVLHVAAAEGDVVTLEYVLSKWQEDPNPCDRYDRTPLDDAKHFNHTACVKLLEEAITVYNLKGQDD", "soluble on expression in E. coli": "not soluble"},
      {"sequence": "MAASLGLAAAAASAWAQAPAMDHGSMPGMDHGAAPASAMDHGSMPGMDHGAAPAPAIGALPSSDGAGDQSYAAYGIHSHMMDDMATSQLLFDKLGMTYDRDRRTGLQWDGQFWVGRDLDKLWIKSEGERVGGRSDGKVEAFWNRTISPFWDLQVGARRDFGTGPKRNWGAIGLQGVAPYNIETEVTAYVGGSGRTALALKAEYDLLLTQRLVLTPEIEASVYGKDDKARGIGAGLSDASFSLRLRYEITREVAPYVGVSFGRKFGRTASYASEEGESRSERAIMAGVRIWFLEHHHHHH", "soluble on expression in E. coli": "not soluble"}
    ]}
  ]
}
